Results published in publication PMC5600342 (Biochemistry and Biophysics Reports, 2016).
One block for each binder: values may come before it. Ends that are not written are not given here.

How the values were obtained:
[1] = biological target: mouse P1+P2 (stoichiometric mixture containing equal amounts of protamines P1 and P2) (mouse); assay: native gel or EMSA
[2] = biological target: T1, Mouse nucleoplasmin M.NPM2 (full murine NPM2) (mouse, UniProt Q80W85 1-207); assay: cross-linking
T1 sequence: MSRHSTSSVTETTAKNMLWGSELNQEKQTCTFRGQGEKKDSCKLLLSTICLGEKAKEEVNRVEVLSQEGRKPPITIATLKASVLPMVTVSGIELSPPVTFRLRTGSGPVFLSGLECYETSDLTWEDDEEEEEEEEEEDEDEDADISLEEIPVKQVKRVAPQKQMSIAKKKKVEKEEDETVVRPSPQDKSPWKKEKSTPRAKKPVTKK

- stoichiometry N [1]: 3 P1+P2:M.NPM2
B1: Mouse nucleoplasmin M.NPM2 (full murine NPM2) (natural protein)
chain: T1 sequence

- binding result [2]: binds
B2: Mouse protamine P1 (natural protein)
chain: MARYRC(pyridylethyl)C(pyridylethyl)RSKSRSRC(pyridylethyl)RRRRRRC(pyridylethyl)RRRRRRC(pyridylethyl)C(pyridylethyl)RRRRRRC(pyridylethyl)C(pyridylethyl)RRRRSYTIRC(pyridylethyl)KKY
